# Laboratory results from the supplement of paper PMC9233669.
# Variants at the floor of the assay were thinned out.
# What was measured:
# biotinyl-Phe-oxazolone = experiment: self-aminoacylation, catalytic enhancement (BFO) (fold over background); higher = more active; k-Seq, kA / k0A0; sequences stand for … in GGGAAUGGAUCCACAUCUACGAAUUC…UUCACUGCAGACUUGACGAAGCUG
# Outline: (§1)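 Mutagenized RNA pools with a 21-nt variable region (0.43 μM) reacted with each biotinyl-aminoacyl-oxazolone at 2–1250 μM. Reactions ran in 50 μL HEPES/NaCl/KCl/MgCl2/CaCl2 buffer with 5% acetonitrile, pH 6.9–7.0, for 90 minutes at room temperature. Streptavidin-captured RNA was quantified by triplicate qPCR and Illumina sequencing, and per-sequence fraction reacted was fit to a pseudo-first-order model with 1000 bootstraps. Catalytic enhancement is median kA divided by the uncatalyzed rate, the low-activity peak of a bimodal Gaussian fit.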
# biotinyl-Ile-oxazolone = experiment: self-aminoacylation, catalytic enhancement (BIO) (fold over background); higher = more active; k-Seq, kA / k0A0; sequences stand for … in GGGAAUGGAUCCACAUCUACGAAUUC…UUCACUGCAGACUUGACGAAGCUG
# Outline: as §1
# biotinyl-Met-oxazolone = experiment: self-aminoacylation, catalytic enhancement (BMO) (fold over background); higher = more active; k-Seq, kA / k0A0; sequences stand for … in GGGAAUGGAUCCACAUCUACGAAUUC…UUCACUGCAGACUUGACGAAGCUG
# Outline: as §1
# biotinyl-Val-oxazolone = experiment: self-aminoacylation, catalytic enhancement (BVO) (fold over background); higher = more active; k-Seq, kA / k0A0; sequences stand for … in GGGAAUGGAUCCACAUCUACGAAUUC…UUCACUGCAGACUUGACGAAGCUG
# Outline: as §1
# biotinyl-Leu-oxazolone = experiment: self-aminoacylation, catalytic enhancement (BLO) (fold over background); higher = more active; k-Seq, kA / k0A0; sequences stand for … in GGGAAUGGAUCCACAUCUACGAAUUC…UUCACUGCAGACUUGACGAAGCUG
# Outline: as §1
# biotinyl-Trp-oxazolone = experiment: self-aminoacylation, catalytic enhancement (BWO) (fold over background); higher = more active; k-Seq, kA / k0A0; sequences stand for … in GGGAAUGGAUCCACAUCUACGAAUUC…UUCACUGCAGACUUGACGAAGCUG
# Outline: as §1
Sequence,self-aminoacylation (biotinyl-Phe-oxazolone),self-aminoacylation (biotinyl-Ile-oxazolone),self-aminoacylation (biotinyl-Met-oxazolone),self-aminoacylation (biotinyl-Val-oxazolone),self-aminoacylation (biotinyl-Leu-oxazolone),self-aminoacylation (biotinyl-Trp-oxazolone)
AUUUCCCUGAUCAUCGAGUGA [Fam2.1 aminoacylation ribozyme variant],18.5,3,6.25,3.27,5.98,7.61
AUUUCCCUGGCCAUCGAGUGA [Fam2.1 aminoacylation ribozyme variant],11.7,1.72,2.45,1.95,2.78,3.3
AUUUCCCUGGUCAUCGAAUGA [Fam2.1 aminoacylation ribozyme variant],0.941,1.09,1.02,1.12,1.02,0.88
AUUUCCCUGGUCAUCGAUUGA [Fam2.1 aminoacylation ribozyme variant],0.598,1.07,0.986,1,1.06,0.985
AUUUCCCUGGUCAUGGAGUGA [Fam2.1 aminoacylation ribozyme variant],22,2.96,4.2,2.89,4.22,4.72
AUUUCCCUGGUGAUCGAGUGA [Fam2.1 aminoacylation ribozyme variant],44.4,2.77,5.5,3.15,5.66,6.58
AUUUCCCUGUUCAUCGAGUGA [Fam2.1 aminoacylation ribozyme variant],11.4,2.79,5.22,3.09,5.04,5.62
AUUUCGCUGGUCAUCGAGUGA [Fam2.1 aminoacylation ribozyme variant],28.5,2.84,4.64,3.16,5.38,5.72
CAACACCUCAAGCAAUCGGUC [Fam1B.1 aminoacylation ribozyme variant],1.3,0.947,1.27,0.914,1.1,0.997
CAACACUUCAAGCAAACGGUC [Fam1B.1 aminoacylation ribozyme variant],0.797,0.92,0.678,0.815,0.68,0.739
CAACACUUCAAGCAAUCCGUC [Fam1B.1 aminoacylation ribozyme variant],1.12,1.24,1.19,1.31,1.02,0.727
CAACACUUCAAGCAAUCGGUA [Fam1B.1 aminoacylation ribozyme variant],1.44,1.25,1.15,1.14,1.13,1.23
CAACACUUCAAGCAAUCGGUU [Fam1B.1 aminoacylation ribozyme variant],6.96,1.84,1.64,1.52,1.76,4.96
CAACACUUCAAGCAAUCUGUC [Fam1B.1 aminoacylation ribozyme variant],0.588,0.399,0.396,0.502,0.362,0.398
CAACACUUCAAGCAAUGGGUC [Fam1B.1 aminoacylation ribozyme variant],0.677,0.858,0.834,0.664,0.882,0.833
CAACACUUCAAGCAAUUGGUC [Fam1B.1 aminoacylation ribozyme variant],1.42,0.98,0.866,0.904,0.775,0.958
CAACCUCAAACAAUCGGUCUG [Fam1A.1 aminoacylation ribozyme variant],11.5,1.21,1.37,1.31,1.61,4.78
CAACUUCAAACAAACGGUCUG [Fam1A.1 aminoacylation ribozyme variant],0.948,1.07,0.945,0.946,0.995,1.04
CAACUUCAAACAAUAGGUCUG [Fam1A.1 aminoacylation ribozyme variant],1.41,1.03,0.997,0.919,0.884,0.98
CAACUUCAAACAAUCGGACUG [Fam1A.1 aminoacylation ribozyme variant],19.2,1.26,0.952,0.945,1.41,10.6
CAACUUCAGACAAUCGGUCUG [Fam1A.1 aminoacylation ribozyme variant],2.46,1.09,0.989,1.09,1.08,1.43
CAACUUCGAACAAUCGGUCUG [Fam1A.1 aminoacylation ribozyme variant],2.22,1.21,1.1,1.15,0.999,2.15
CAACUUCUAACAAUCGGUCUG [Fam1A.1 aminoacylation ribozyme variant],1.44,0.904,0.722,0.917,0.743,1.05
CAAGUUCAAACAAUCGGUCUG [Fam1A.1 aminoacylation ribozyme variant],6.99,0.983,0.954,0.969,1.02,4.9
CACUUUGCUAAUAGUCGCAAG [Fam3.1 aminoacylation ribozyme variant],0.947,1.41,1.32,1.01,1.38,2.22
CAGUUAGCUAAUAGUCGCAAG [Fam3.1 aminoacylation ribozyme variant],1.67,1.21,1.17,1.32,1.04,0.96

Sequence,self-aminoacylation (biotinyl-Phe-oxazolone),self-aminoacylation (biotinyl-Ile-oxazolone),self-aminoacylation (biotinyl-Met-oxazolone),self-aminoacylation (biotinyl-Val-oxazolone),self-aminoacylation (biotinyl-Leu-oxazolone),self-aminoacylation (biotinyl-Trp-oxazolone)
CAGUUUGCUAAUAGGCGCAAG [Fam3.1 aminoacylation ribozyme variant],0.95,1.21,1.14,1.27,1.35,0.744
CAGUUUGCUAAUAGUCACAAG [Fam3.1 aminoacylation ribozyme variant],2.59,1.04,1.04,0.952,1.11,1.3
CAUCUUCAAACAAUCGGUCUG [Fam1A.1 aminoacylation ribozyme variant],47,1.14,1.48,1.23,1.96,24.5
CCAAACUUCAAGCAAUCGGCC [Fam1B.1 aminoacylation ribozyme variant],4.84,2.38,2.21,3.04,3.45,5.38
CCAAACUUCUAGCAAUCGGUC [Fam1B.1 aminoacylation ribozyme variant],1.01,0.961,0.839,0.952,0.733,0.667
CCAAGCUUCAAGCAAUCGGUC [Fam1B.1 aminoacylation ribozyme variant],86.5,1.35,1.51,1.3,2.5,44.9
CCACAAUUCAAACAAUCGGUC [Fam1B.1 aminoacylation ribozyme variant],18.1,1.26,1.08,1.04,1.19,8.88
CCACAAUUCAAGCAAUCGAUC [Fam1B.1 aminoacylation ribozyme variant],0.898,0.742,0.699,0.888,0.685,0.675
CCACAAUUCAAGCACUCGGUC [Fam1B.1 aminoacylation ribozyme variant],0.706,1.4,1.17,1.18,1.24,0.787
CCACAAUUCAAGCCAUCGGUC [Fam1B.1 aminoacylation ribozyme variant],1.19,1.46,1.47,1.7,1.59,1.3
CCACAAUUCAGGCAAUCGGUC [Fam1B.1 aminoacylation ribozyme variant],1.29,1.47,1.37,1.42,1.46,0.94
CCACACAUCAAGCAAUCGAUC [Fam1B.1 aminoacylation ribozyme variant],0.914,0.575,0.439,0.748,0.581,0.513
CCACACAUCAAGCAAUCGGCC [Fam1B.1 aminoacylation ribozyme variant],4.94,2.66,1.65,2.9,2.25,2.88
CCACACAUCAAGCAGUCGGUC [Fam1B.1 aminoacylation ribozyme variant],0.847,0.93,0.686,1.05,0.799,0.457
CCACACAUCAAGCCAUCGGUC [Fam1B.1 aminoacylation ribozyme variant],1.07,1.19,1.04,1.27,1.01,0.895
CCACACAUCAAGCUAUCGGUC [Fam1B.1 aminoacylation ribozyme variant],0.819,0.954,0.888,1.15,0.914,0.735
CCACACAUCAGGCAAUCGGUC [Fam1B.1 aminoacylation ribozyme variant],1.15,1.25,1.03,1.3,1.12,0.806
CCACACAUCCAGCAAUCGGUC [Fam1B.1 aminoacylation ribozyme variant],0.873,1.2,1.05,1.08,0.983,0.847
CCACACCACAAGCAAUCGGUC [Fam1B.1 aminoacylation ribozyme variant],0.854,1.13,0.999,1.1,0.949,0.871
CCACACCGCAAGCAAUCGGUC [Fam1B.1 aminoacylation ribozyme variant],0.867,1.12,1.13,1.13,0.882,1.02
CCACACCUCAAGCAAUCGGUU [Fam1B.1 aminoacylation ribozyme variant],0.882,1.43,1.14,2.1,1.98,1.57
CCACACCUCAAGCUAUCGGUC [Fam1B.1 aminoacylation ribozyme variant],1.1,1.37,1.21,1.27,1.18,0.809
CCACACCUCAAGGAAUCGGUC [Fam1B.1 aminoacylation ribozyme variant],0.875,1.34,1.02,1.26,1.34,1.32
CCACACCUCAUGCAAUCGGUC [Fam1B.1 aminoacylation ribozyme variant],1.19,0.959,0.839,1.05,0.685,0.975
CCACACGUCAAGCAAACGGUC [Fam1B.1 aminoacylation ribozyme variant],0.465,0.784,0.86,1.37,0.809,0.619
